Primed or numbered codes have the meaning given here. No end group written: not given here. FITC′ = fluorescein isothiocyanate label
B1: MBP-fused PB1-ZZ of p62 (residues 1-181) wild type (domain or fragment)
chain: not shown

Experiments:
[1] = target: B1; test: FP; pH 8.0
FEEED = target: T1, FEEED (Homo sapiens, not fully specified); test: FP; pH 8.0
T1 chain: H-FEEED

[2] = target: Flag-ZZ (ZZ-domain of p62 with the flag-tag) (human); test: FP; pH 6.0
Sequence of Flag-ZZ (ZZ-domain of p62 with the flag-tag) (human) (chain, as listed by the source): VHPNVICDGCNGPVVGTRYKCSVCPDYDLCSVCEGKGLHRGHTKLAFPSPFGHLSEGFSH

Binder | Kd [1] [µM] | other results
KEEEDK (also: FITC-labeled, site not given here) [FITC-labeled N-degron peptide with lysine at the primary position] | 113 | –
B1 | – | Kd (FEEED): 169 µM
REEEDK-{FITC′} [R-BiP peptide (REEEDK–FITC)] | – | Kd [2]: > 400 µM
YEEEDK (also: FITC-labeled (site not given here)) [FITC-labeled N-degron peptide with tyrosine at the primary position] | 68 | –
WEEEDK (also: FITC-labeled (site not given here)) [FITC-labeled N-degron peptide with tryptophan at the primary position] | 82 | –

Reference: article PMC6098011 (2018)
